Source: patent US20180030118A1

Assays:
Assay in all cases: ELISA, GP coated 200 ng/well, mAb at 2 ug/mL; negative control
[1] = biological target: MARV Angola GPe (Marburg virus, strain Angola) (UniProt Q1PD50)
[2] = biological target: MARV Musoke GPe (Marburg virus, strain Musoke) (UniProt P35253)
[3] = biological target: MARV Ravn GPe (Marburg virus, strain Ravn) (UniProt Q1PDC7)
Chain of MARV Ravn GPe (Marburg virus, strain Ravn) (Q1PDC7 19-648): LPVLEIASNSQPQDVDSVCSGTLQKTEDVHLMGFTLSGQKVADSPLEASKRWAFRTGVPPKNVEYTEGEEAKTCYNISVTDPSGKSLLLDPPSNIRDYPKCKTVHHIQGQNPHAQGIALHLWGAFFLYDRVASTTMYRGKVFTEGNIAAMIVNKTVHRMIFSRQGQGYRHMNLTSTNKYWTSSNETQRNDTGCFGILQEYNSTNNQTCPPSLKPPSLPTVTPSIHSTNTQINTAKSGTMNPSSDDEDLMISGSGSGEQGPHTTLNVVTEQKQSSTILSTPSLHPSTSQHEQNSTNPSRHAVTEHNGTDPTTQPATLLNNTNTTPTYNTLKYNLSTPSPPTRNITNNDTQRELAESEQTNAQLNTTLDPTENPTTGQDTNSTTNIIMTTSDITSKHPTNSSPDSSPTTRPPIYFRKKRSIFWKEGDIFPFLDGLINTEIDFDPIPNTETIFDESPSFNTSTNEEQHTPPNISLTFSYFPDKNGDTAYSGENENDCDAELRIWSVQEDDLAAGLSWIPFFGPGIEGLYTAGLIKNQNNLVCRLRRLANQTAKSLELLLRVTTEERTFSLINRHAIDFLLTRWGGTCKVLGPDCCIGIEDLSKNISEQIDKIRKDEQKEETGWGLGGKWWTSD

Chain of MARV Angola GPe (Marburg virus, strain Angola) (Q1PD50 19-648): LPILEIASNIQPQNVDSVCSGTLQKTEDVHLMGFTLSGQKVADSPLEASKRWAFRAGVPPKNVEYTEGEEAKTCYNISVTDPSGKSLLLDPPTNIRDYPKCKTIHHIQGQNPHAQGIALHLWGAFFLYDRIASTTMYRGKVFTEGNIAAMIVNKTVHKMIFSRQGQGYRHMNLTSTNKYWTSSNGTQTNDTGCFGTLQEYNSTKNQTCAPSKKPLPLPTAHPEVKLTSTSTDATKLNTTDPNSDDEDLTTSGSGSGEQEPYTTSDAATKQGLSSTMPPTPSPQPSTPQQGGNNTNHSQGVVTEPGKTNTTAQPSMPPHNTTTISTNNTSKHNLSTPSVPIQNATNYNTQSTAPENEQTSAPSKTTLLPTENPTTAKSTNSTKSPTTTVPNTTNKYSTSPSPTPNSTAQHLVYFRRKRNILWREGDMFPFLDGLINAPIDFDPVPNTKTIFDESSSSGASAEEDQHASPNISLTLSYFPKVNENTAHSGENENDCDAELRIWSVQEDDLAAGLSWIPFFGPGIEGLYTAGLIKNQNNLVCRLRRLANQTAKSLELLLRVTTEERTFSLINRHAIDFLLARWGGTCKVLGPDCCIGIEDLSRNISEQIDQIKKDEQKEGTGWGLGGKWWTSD
Chain of MARV Musoke GPe (Marburg virus, strain Musoke) (P35253 19-648): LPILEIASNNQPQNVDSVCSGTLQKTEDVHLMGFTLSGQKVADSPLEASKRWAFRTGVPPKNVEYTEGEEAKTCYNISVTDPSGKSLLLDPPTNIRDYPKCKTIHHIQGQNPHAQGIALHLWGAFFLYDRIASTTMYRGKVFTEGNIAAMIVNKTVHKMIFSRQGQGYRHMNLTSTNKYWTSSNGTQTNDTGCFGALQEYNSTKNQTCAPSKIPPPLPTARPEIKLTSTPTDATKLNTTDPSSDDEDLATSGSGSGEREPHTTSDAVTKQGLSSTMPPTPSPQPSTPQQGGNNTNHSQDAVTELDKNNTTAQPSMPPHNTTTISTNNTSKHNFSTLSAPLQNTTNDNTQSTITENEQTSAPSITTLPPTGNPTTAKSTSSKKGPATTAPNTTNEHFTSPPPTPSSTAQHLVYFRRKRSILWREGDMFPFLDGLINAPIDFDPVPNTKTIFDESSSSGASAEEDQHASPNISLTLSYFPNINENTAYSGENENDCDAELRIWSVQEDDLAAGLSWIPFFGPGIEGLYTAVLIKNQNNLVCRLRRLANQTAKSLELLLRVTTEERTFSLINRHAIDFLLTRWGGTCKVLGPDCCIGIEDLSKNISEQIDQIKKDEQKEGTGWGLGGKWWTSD

Substance IgG Neg Control (human) (antibody) has an OD405 @ 30 min [1] of 0.054 OD405, an OD405 @ 30 min [2] of 0.056 OD405 and an OD405 @ 30 min [3] of 0.052 OD405.

Work on IgG Neg Control (murine) (antibody) yielded an OD405 @ 30 min [1] of 0.047 OD405, an OD405 @ 30 min [2] of 0.049 OD405 and an OD405 @ 30 min [3] of 0.049 OD405.
